Experimental data as given in patent publication US20200239586A1.

Columns and labels:
human Fn14 (human) = biological target: T1, human Fn14 (human) (UniProt Q9NP84); assay: cell-based or functional assay
T1 sequence: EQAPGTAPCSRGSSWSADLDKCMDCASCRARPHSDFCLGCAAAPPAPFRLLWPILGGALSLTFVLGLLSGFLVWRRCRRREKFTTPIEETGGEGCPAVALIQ

[1] = biological target: T2, Histidine tagged hFn14 extracellular domain, bacterially expressed (human) (UniProt Q9NP84); assay: SPR (ProteOn XPR36), mAb coupled to chip, His-tagged hFn14 analyte, Langmuir 1:1 fit
T2 sequence: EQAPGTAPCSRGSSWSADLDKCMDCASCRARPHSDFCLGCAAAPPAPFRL

[2] = biological target: T3, synthetic peptide hFn14 sub-domain 3 (human); assay: ELISA on biotinylated sub-domain 3 peptide, mAb at 0.2 ug/ml
T3 sequence (peptide, biotin on the added C-terminal lysine): ASCRARPHSDFCLGK

[3] = biological target: synthetic peptide hFn14 sub-domain 2 (human); assay: ELISA on biotinylated sub-domain 2 peptide, mAb at 5 ng/ml
Chain of synthetic peptide hFn14 sub-domain 2 (human) (peptide, as listed by the source): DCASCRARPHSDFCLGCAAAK

B1: ITEM-4 (antibody, from another filing, V domains shown)
VH: QVQLQQSGPELVKPGASVKMSCKASGYTFTDFIIAWVKQRTGQGLEWIGEIYPGTGRTYYSEKFRGKATLTADKSSNTAYMQLSSLTSVDSAVYFCARRTIYYDYDGDYWGQGTTLTVSS
VL: DIVMTQAAFSNPVTLGTSASISCRSSKSLLHSNGITYLYWYLQKPGQSPQLLIYQMSNLASGVPDRFSSSGSGTDFTLRISRVEAEDVGVYYCAHNLELPWTFGGGTKLELK
% Agonist, IL-8 secretion by A375 cells (human Fn14 (human)): 8% | % Antagonist, IL-8 secretion by A375 cells (human Fn14 (human)): 97% | Kd [1]: 1.68 nM | koff [1]: 0.000864 s⁻¹ | kon [1]: 510000 M⁻¹ s⁻¹

B2: ITEM-1 (antibody, from another filing, V domains shown)
VH: EVKLEESGGGLVQPGGSMKLSCVASGFSFSNYWMNWVRQSPEKGLEWVAEIRLKSNNYATHYAESVKGRFTISRHDSKSSVYLQMNNLRAEDTGIYYCTRAYADYFDYWGQGTTLTVSS
VL: DIVLTQSPASLVVSLGQRATISCRASQSVSTSTYSYMHWYQQKPGQPPKILIKYASNLESGVPARFSGSGSGTDFTLNIHPVEEEDTATYYCQHSWEIPYTFGGGTKLEIKR
% decrease in binding compared with CRCBT-06-005 [2]: 76% | % Agonist, IL-8 secretion by A375 cells (human Fn14 (human)): 21% | % Antagonist, IL-8 secretion by A375 cells (human Fn14 (human)): 9% | Kd [1]: 4.1 nM | koff [1]: 0.00147 s⁻¹ | kon [1]: 358000 M⁻¹ s⁻¹ | % decrease in binding compared to CRCBT-06-001 and CRCBT-06-002 [3]: 68%
